Laboratory results reported in patent US20230242675A1 (SHANGHAI EPIMAB BIOTHERAPEUTICS, published 2023).
Positions count from the first letter of the chain named. In names and notes the source's numbering stands.

B1: HuEM0005-87-1 (antibody, human IgG1, V domains shown)
VH: EVQLVQSGAEVKKPGASVKVSCKASGYTFTDYYINWVRQAPGQGLEWMGETIPNTGGTTYNQKFKARVTMTVDTSTSTVYMELSSLRSEDTAVYYCARYQSGSPFAYWGQGTTVTVSS
VL: DIVMTQSPDSLAVSLGERATINCKASQNVGTAVAWYQQKPGQPPKLLIYSASNRYTGVPDRFTGSGSGTDFTLTISSLQAEDVAVYYCQQHYSTPYTFGGGTKLEIK
notes: also called HuEM0005-87-l
B2: HuEM0005-87-4 (antibody, human IgG1, V domains shown)
VH: B1 VH with T28S, M48I, R67K, V68A, M70L, T74K, V79A
VL: B1 VL
B3: HuEM0005-87-2 (antibody, human IgG1, V domains shown)
VH: B1 VH with M70L
VL: B1 VL
B4: HuEM0005-87-5 (antibody, human IgG1, V domains shown)
VH: B1 VH with T28S, R38K, M48I, R67K, V68A, M70L, V72R, T74K, V79A, S84K
VL: B1 VL
B5: HuEM0005-87-6 (antibody, human IgG1, V domains shown)
VH: B1 VH
VL: EIVMTQSPATLSVSPGERATLSCKASQNVGTAVAWYQQKPGQAPRLLIYSASNRYTGIPARFSGSGSGTEFTLTISSLQSEDFAVYYCQQHYSTPYTFGGGTKLEIK
B6: HuEM0005-87-3 (antibody, human IgG1, V domains shown)
VH: B1 VH with M48I, M70L, T74K
VL: B1 VL
B7: HuEM0005-90-5 (antibody, human IgG1, V domains shown)
VH: EVQLVQSGAEVKKPGASVKVSCKASGYTFTSHSINWVRQATGQGLEWMGYMYIGNGYTEYNEKFKGRVTLTSNTSISTAYMELSSLRSEDTAVYYCAKITPVVAPYVMDYWGQGTSVTVSS
VL: DIQMTQSPSFLSASVGDRVTITCKASQDVGTAVAWYQQKPGKAPKLLIYWASTRHTGVPSRFSGSGSGTEFTLTISSLQPEDFATYYCQQYSSYPYTFGQGTKLEIK
B8: HuEM0005-90-2 (antibody, human IgG1, V domains shown)
VH: B7 VH with M48I, V68A
VL: B7 VL with M4L
B9: HuEM0005-90-4 (antibody, human IgG1, V domains shown)
VH: B7 VH with A24T, M48I, V68A
VL: B7 VL with M4L
B10: HuEM0005-90-6 (antibody, human IgG1, V domains shown)
VH: B7 VH with M48I, V68A
VL: B7 VL
B11: HuEM0005-90-3 (antibody, human IgG1, V domains shown)
VH: B7 VH with A24T, L70M
VL: B7 VL with M4L
B12: HuEM0005-90-1 (antibody, human IgG1, V domains shown)
VH: B7 VH
VL: B7 VL with M4L
notes: measured without the G55A change
B13: HuEM0005-87-11 (antibody, human IgG1, V domains shown)
VH: B1 VH
VL: B5 VL with I58V
notes: also called HuEM0005-87-l l
B14: HuEM0005-87-9 (antibody, human IgG1, V domains shown)
VH: B1 VH with T28S, M48I, R67K, V68A, M70L, T74K, V79A
VL: B5 VL
B15: HuEM0005-87-8 (antibody, human IgG1, V domains shown)
VH: B1 VH with M48I, M70L, T74K
VL: B5 VL
B16: HuEM0005-87-10 (antibody, human IgG1, V domains shown)
VH: B1 VH with T28S, R38K, M48I, R67K, V68A, M70L, V72R, T74K, V79A, S84K
VL: B5 VL
B17: HuEM0005-87-7 (antibody, human IgG1, V domains shown)
VH: B1 VH with M70L
VL: B5 VL
B18: HuEM0005-87-12 (antibody, human IgG1, V domains shown)
VH: B1 VH with M70L
VL: B5 VL with I58V
B19: HuEM0005-90-8 (antibody, human IgG1, V domains shown)
VH: B7 VH with A24T, M48I, V68A
VL: B7 VL
B20: HuEM0005-90-7 (antibody, human IgG1, V domains shown)
VH: B7 VH with A24T, L70M
VL: B7 VL
B21: HuEM0005-90-11 (antibody, human IgG1, V domains shown)
VH: B7 VH with A24T, L70M
VL: B7 VL with Q3V, E70D
B22: HuEM0005-90-9 (antibody, human IgG1, V domains shown)
VH: B7 VH
VL: B7 VL with Q3V, E70D
B23: HuEM0005-90-10 (antibody, human IgG1, V domains shown)
VH: B7 VH with M48I, V68A
VL: B7 VL with Q3V, E70D
B24: HuEM0005-90-12 (antibody, human IgG1, V domains shown)
VH: B7 VH with A24T, M48I, V68A
VL: B7 VL with Q3V, E70D

What follows are binders tested against T1, human PD-L1/His fusion protein (human, UniProt Q9NZQ7 19-239) (assay: BLI Octet RED96, antibody on AHC sensor, single conc. PD-L1/His; test group 1).
Experimental: (§1) Briefly, antibodies were characterized for affinities and binding kinetics by Octet®RED96 biolayer interferometry (Pall ForteBio LLC). Antibodies were captured by Anti-hIgG Fc Capture (AHC) Biosensors (Pall) at a concentration of 100 nM for 30 seconds. Sensors were then dipped into running buffer (1×pH 7.2 PBS, 0.05% Tween 20, 0.1% BSA) for 60 seconds to check baseline. Binding was measured by dipping sensors into a single concentration of recombinant human PD-L1/His fusion protein (Novoprotein). Dissociation was followed by dipping sensors into running buffer for 1200 seconds. The association and dissociation curves were fitted to a 1:1 Langmuir binding model using ForteBio Data Analysis software (Pall). […] The off-rate ratio serves as a data normalization. Accordingly, in each test group, the off-rate ratios of the humanized antibodies can be compared with that of the chimeric antibody, and the off-rate ratios of each of the humanized antibodies can be compared to one another within all test groups.

T1 sequence (Q9NZQ7 19-239 limits assumed): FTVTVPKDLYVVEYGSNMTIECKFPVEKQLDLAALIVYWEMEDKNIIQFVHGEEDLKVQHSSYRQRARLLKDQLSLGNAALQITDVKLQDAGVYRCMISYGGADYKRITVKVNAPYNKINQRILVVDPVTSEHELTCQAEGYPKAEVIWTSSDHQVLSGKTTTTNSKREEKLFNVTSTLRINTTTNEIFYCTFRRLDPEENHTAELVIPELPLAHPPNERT

Row | Binder | koff [s⁻¹]
1 | B1 | 0.000937
2 | B2 | 0.000768
3 | B3 | 0.000797
4 | B4 | 0.000947
5 | B5 | 0.000998
6 | B6 | 0.000926
7 | B7 | 0.00027
8 | B8 | 0.000227
9 | B9 | 0.000246
10 | B10 | 0.000254
11 | B11 | 0.000304
12 | B12 | 0.000259

Each binder was assayed against T1, human PD-L1/His fusion protein (assay: BLI off-rate; test group 2).
Experimental: as §1

Row | Binder | Off-Rate Ratio to that of EM0005-87c [%] | Off-Rate Ratio to that of EM0005-90c [%]
13 | B13 | 74 | –
14 | B14 | 84 | –
15 | B15 | 81 | –
16 | B16 | 96 | –
17 | B17 | 68 | –
18 | B18 | 77 | –
19 | B19 | – | 102
20 | B20 | – | 135
21 | B21 | – | 121
22 | B22 | – | 109
23 | B23 | – | 91
24 | B24 | – | 100

What follows are binders tested against T1, human PD-L1/His fusion protein (assay: BLI off-rate; test group 1).
Experimental: as §1

Row | Binder | Off-Rate Ratio to that of EM0005-87c [%] | Off-Rate Ratio to that of EM0005-90c [%]
25 | B1 | 64 | –
26 | B2 | 52 | –
27 | B3 | 54 | –
28 | B4 | 64 | –
29 | B5 | 68 | –
30 | B6 | 63 | –
31 | B7 | – | 107
32 | B8 | – | 90
33 | B9 | – | 97
34 | B10 | – | 100
35 | B11 | – | 120
36 | B12 | – | 102

What follows are binders tested against T1, human PD-L1/His fusion protein (assay: BLI Octet RED96, antibody on AHC sensor, single conc. PD-L1/His; test group 2).
Experimental: as §1

Row | Binder | koff [s⁻¹]
37 | B13 | 0.000769
38 | B14 | 0.000878
39 | B15 | 0.000844
40 | B16 | 0.000994
41 | B17 | 0.000709
42 | B18 | 0.000798
43 | B19 | 0.000349
44 | B20 | 0.00046
45 | B21 | 0.000414
46 | B22 | 0.000373
47 | B23 | 0.00031
48 | B24 | 0.000342
